In the MegaScale stability set (Tsuboyama et al. 2023):

B1: EEHEE_rd4_0003 (parent)
chain: KKVTINGVEIKFNNPEEAVKFALELAKRLNLRIEFHGDQIKIE

Variants of: B1
Assay: folding stability dG (cDNA display proteolysis); higher = more stable
Settings: PBS, room temperature

Folding stability dG [kcal/mol], by site and new letter:
E17: I 2.36, T 2.26, D 2.68, K 2.3, S 2.39, A 2.68, G 2.2, M 2.49, P 1.9, Q 2.48, V 2.25, H 2.23, R 2.16, C 4.22, Y 2.56, N 2.24, L 2.56, W 2.84, F 2.36
G7: L 2.42, S 1.85, A 1.95, D 1.89, V 2.45, N 2.11, F 2.37, M 2.2, Y 2.23, W 2.54, R 1.87, E 1.78, H 1.89, P 2.01, K 2.09, C 3.05, Q 1.96, T 1.98, I 2.84
N13: R 2.84, A 2.8, G 2.44, F 2.54, L 2.72, D 2.73, W 2.6, H 2.45, I 2.59, Q 2.54, P 2.53, C 3.31, S 2.69, Y 2.39, V 2.46, K 2.8, M 2.66, E 2.59, T 2.61
E9: F 2.53, G 2.12, W 2.73, L 2.78, K 2.08, T 2.98, R 2.36, I 2.85, N 2.19, V 2.94, A 2.4, C 3.54, S 2.58, H 2.46, D 2.3, M 2.62, Y 2.58, P 2.3, Q 2.46
I10: M 2.36, H 2.49, T 1.78, Q 1.65, W 2.55, V 2.22, C 3.45, Y 2.99, F 2.89, A 1.65, L 2.6, G 1.21, S 1.6, R 1.88, N 1.5, K 1.83, P 1.19, E 1.36, D 1.28
K2: A 2.46, R 2.78, V 3.28, Y 2.82, H 2.46, M 2.83, I 3.41, W 2.88, E 2.06, F 2.8, N 2.48, Q 2.36, C 3.4, D 1.93, G 2.2, P 2.2, L 2.84, S 2.92, T 3.4
V3: D 1.7, S 1.46, Y 2.26, G 1.85, Q 1.59, N 1.7, F 2.27, K 1.57, H 1.86, A 1.67, W 2.29, R 1.95, P 2.06, T 1.76, I 2.48, E 1.86, M 2.12, L 2.39
F12: E 0.907, K 1.09, H 1.45, W 2.14, L 1.92, A 1.48, N 1.33, M 1.96, Y 1.89, G 1.55, Q 1.13, T 1.7, C 3.25, S 1.57, I 1.9, V 1.86, P 1.14, D 0.955, R 1.41
N14: I 2.36, W 2.39, Y 2.41, T 3.02, E 1.86, L 2.56, C 2.98, M 2.38, H 2.37, Q 2.06, V 2.36, A 2.25, S 2.93, K 2.35, G 2.22, R 2.44, F 2.64, D 2.56, P 2.4
I5: W 2.83, N 1.47, L 2.39, M 2.07, Q 1.66, E 1.56, S 1.46, C 3.46, V 2.47, D 1.54, P 1.79, A 1.71, K 1.54, F 2.8, R 1.58, Y 2.71, T 1.59, H 1.93, G 1.72
V8: Q 2.25, A 2.03, N 2, L 2.51, F 2.71, R 2.56, C 3.55, W 2.75, Y 2.82, M 2.51, T 2.24, P 1.6, K 2.4, E 1.99, D 1.65, S 1.97, G 1.78, H 2.53, I 2.74
T4: P 1.76, H 2.26, S 2.38, F 3.25, C 3.48, M 2.74, G 1.61, W 3.01, A 2.02, I 3, Q 2.17, L 2.95, R 2.18, D 1.7, E 1.98, N 2.21, V 2.94, Y 3.11, K 2.29
K11: M 2.99, V 2.96, Q 2.72, W 3.53, S 2.72, L 3.02, P 2.22, D 2.3, G 2.28, C 3.94, N 2.83, E 2.77, F 3.26, A 2.6, Y 3.32, I 3, R 2.78, H 3.03, T 2.85
A18: K 1.52, Q 1.61, H 1.7, F 2.79, C 3.5, I 2.45, E 1.47, P 1.64, L 2.59, G 2.01, D 1.41, N 1.75, M 2.47
K1: M 3.33, G 2.6, P 2.75, V 3.25, Q 2.5, F 3.5, I 3.3, L 3.15, S 2.83, T 3.14, E 2.09, R 2.79, H 2.89, Y 3.44, N 2.67, W 3.51, D 2.23, A 2.84
E16: N 2.43, C 3.56, K 2.48, H 2.47, I 2.59, F 2.69, R 2.6, S 2.54, A 2.61, T 2.46, D 2.53, P 2.08, Q 2.6, Y 2.7, W 2.99, G 2.48, V 2.53, L 2.69, M 2.66
N6: K 2.17, E 1.91, V 2.52, F 3.23, P 1.57, R 2.25, A 2.41, Y 2.75, L 2.87, Q 2.14, G 2.5, T 2.01, S 2.11, H 2.45, C 4.2, I 2.41, D 2.25, M 2.65, W 3.34
P15: C 3.65, N 2.45, Y 3.14, S 2.77, T 2.74, H 2.84, R 2.79, E 2.52, D 2.46, V 2.67, M 2.97, Q 2.48, L 2.9, A 2.78, G 2.53, K 2.47, I 2.85, W 3.67, F 3.12
